Experimental data reported in paper PMC9482650, “Quantitative fragmentomics allow affinity mapping of interactomes” (Nature Communications, 2022).

Experiments:
Experiment in all cases: holdup assay
Design in all cases: key: below the threshold = too weak to quantify, mostly under pKd 3.1 to 4
Conditions in all cases: plain residues with an end cap or a label only (N-terminal biotin on a linker: ttds)
DFNB31_3, Q9P202 = biological target: T1, DFNB31_3, Q9P202
T1 sequence (Q9P202 811-907, limits assumed, looked up): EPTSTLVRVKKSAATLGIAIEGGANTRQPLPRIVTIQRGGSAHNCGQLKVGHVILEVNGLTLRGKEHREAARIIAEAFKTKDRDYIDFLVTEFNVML

MAGI2_3, Q86UL8 = biological target: MAGI2_3, Q86UL8
Sequence of MAGI2_3, Q86UL8 (Q86UL8 600-682): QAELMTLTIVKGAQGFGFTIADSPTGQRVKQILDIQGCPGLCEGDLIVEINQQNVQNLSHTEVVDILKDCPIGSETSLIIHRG

SCRIB_3, Q14160 = biological target: SCRIB_3, Q14160
Sequence of SCRIB_3, Q14160 (Q14160 999-1103): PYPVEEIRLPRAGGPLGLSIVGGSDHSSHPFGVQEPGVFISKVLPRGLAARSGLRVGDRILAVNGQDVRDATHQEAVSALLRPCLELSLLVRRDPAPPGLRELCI

NHERF2_2, Q15599 = biological target: NHERF2_2, Q15599
Sequence of NHERF2_2, Q15599 (Q15599 142-238): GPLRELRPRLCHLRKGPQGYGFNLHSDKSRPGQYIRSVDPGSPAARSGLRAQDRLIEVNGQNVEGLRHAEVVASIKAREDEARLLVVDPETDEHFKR

FRMPD3, Q5JV73 = biological target: FRMPD3, Q5JV73
Sequence of FRMPD3, Q5JV73 (Q5JV73 12-100): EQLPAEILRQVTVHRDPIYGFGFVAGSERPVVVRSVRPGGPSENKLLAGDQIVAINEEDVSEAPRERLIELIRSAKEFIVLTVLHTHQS

GRIP1_7, Q9Y3R0 = biological target: T2, GRIP1_7, Q9Y3R0
T2 sequence (Q9Y3R0 999-1096, limits assumed, looked up): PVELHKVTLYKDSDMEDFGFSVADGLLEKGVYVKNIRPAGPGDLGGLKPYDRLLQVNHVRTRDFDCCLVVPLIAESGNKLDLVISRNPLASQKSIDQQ

DLG1_1, Q12959 = biological target: DLG1_1, Q12959
DLG4_3, P78352 = biological target: DLG4_3, P78352
Sequence of DLG4_3, P78352 (P78352 306-403): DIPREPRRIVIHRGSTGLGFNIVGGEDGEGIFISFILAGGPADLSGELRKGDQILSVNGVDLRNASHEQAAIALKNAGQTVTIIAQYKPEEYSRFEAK

GRID2IP_2, A4D2P6 = biological target: GRID2IP_2, A4D2P6
Sequence of GRID2IP_2, A4D2P6 (A4D2P6 272-370): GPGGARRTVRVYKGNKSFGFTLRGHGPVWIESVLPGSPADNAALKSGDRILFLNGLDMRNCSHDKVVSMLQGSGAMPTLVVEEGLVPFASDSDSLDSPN

LNX2_3, Q8N448 = biological target: T3, LNX2_3, Q8N448
T3 sequence (Q8N448 463-564, limits assumed, looked up): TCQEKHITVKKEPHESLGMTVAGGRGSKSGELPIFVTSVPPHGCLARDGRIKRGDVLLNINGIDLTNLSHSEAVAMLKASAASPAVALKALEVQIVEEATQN

DFNB31_1, Q9P202 = biological target: T4, DFNB31_1, Q9P202
T4 sequence (Q9P202 135-233, limits assumed, looked up): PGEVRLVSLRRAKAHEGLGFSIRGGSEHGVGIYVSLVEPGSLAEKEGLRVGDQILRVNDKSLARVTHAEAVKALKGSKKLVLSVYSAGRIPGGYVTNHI

Inadl_6, Q8NI35 = biological target: Inadl_6, Q8NI35
Sequence of Inadl_6, Q8NI35 (Q8NI35 1058-1167): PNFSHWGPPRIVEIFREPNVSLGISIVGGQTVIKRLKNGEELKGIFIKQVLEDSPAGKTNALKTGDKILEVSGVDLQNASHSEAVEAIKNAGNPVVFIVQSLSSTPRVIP

DLG3_3, Q92796 = biological target: T5, DLG3_3, Q92796
T5 sequence (Q92796 374-475, limits assumed, looked up): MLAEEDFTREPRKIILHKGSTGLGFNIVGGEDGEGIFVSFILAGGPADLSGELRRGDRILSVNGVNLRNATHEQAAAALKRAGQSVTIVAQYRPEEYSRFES

DLG1_2, Q12959 = biological target: DLG1_2, Q12959
CARD11, Q9BXL7 = biological target: T6, CARD11, Q9BXL7
T6 sequence (Q9BXL7 662-765, limits assumed, looked up): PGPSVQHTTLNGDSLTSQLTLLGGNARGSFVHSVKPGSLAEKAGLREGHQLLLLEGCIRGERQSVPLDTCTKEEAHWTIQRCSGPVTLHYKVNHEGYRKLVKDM

PCLO, Q9Y6V0 = biological target: T7, PCLO, Q9Y6V0
T7 sequence (Q9Y6V0 4491-4600, limits assumed, looked up): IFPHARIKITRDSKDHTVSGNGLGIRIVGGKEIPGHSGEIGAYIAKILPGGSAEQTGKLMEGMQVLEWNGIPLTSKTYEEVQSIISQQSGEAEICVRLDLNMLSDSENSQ

TJP2_1, Q9UDY2 = biological target: TJP2_1, Q9UDY2
Sequence of TJP2_1, Q9UDY2 (Q9UDY2 24-128): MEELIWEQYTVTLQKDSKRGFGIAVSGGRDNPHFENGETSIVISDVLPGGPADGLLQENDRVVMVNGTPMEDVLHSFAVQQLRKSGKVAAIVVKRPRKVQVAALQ

DVL3, Q92997 = biological target: T8, DVL3, Q92997
T8 sequence (Q92997 244-331, limits assumed, looked up): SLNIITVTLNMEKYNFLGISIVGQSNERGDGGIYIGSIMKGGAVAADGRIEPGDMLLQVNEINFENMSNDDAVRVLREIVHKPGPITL

CASK, O14936 = biological target: CASK, O14936
Sequence of CASK, O14936 (O14936 487-570): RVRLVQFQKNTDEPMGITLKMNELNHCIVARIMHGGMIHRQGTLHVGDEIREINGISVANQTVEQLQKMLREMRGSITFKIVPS

TIAM2, Q8IVF5 = biological target: T9, TIAM2, Q8IVF5
T9 sequence (Q8IVF5 885-986, limits assumed, looked up): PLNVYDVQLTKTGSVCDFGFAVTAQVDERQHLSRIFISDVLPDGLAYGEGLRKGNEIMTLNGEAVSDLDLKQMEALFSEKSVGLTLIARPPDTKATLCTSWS

MAGI1_2, Q96QZ7 = biological target: MAGI1_2, Q96QZ7
Sequence of MAGI1_2, Q96QZ7 (Q96QZ7 456-580): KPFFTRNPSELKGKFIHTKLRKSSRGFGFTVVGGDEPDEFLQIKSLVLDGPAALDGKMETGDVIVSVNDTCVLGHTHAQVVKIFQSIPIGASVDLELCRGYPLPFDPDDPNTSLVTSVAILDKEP

RHPN1, Q8TCX5 = biological target: T10, RHPN1, Q8TCX5
T10 sequence (Q8TCX5 508-602, limits assumed, looked up): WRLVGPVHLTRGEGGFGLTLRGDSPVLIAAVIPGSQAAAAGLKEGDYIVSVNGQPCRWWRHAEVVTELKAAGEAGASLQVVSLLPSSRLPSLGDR

MAGI2_5, Q86UL8 = biological target: MAGI2_5, Q86UL8
Sequence of MAGI2_5, Q86UL8 (Q86UL8 915-1017): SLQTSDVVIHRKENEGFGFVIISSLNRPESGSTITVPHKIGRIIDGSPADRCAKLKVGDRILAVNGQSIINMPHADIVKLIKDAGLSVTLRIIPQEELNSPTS

GRIP1_3, Q9Y3R0 = biological target: T11, GRIP1_3, Q9Y3R0
T11 sequence (Q9Y3R0 247-346, limits assumed, looked up): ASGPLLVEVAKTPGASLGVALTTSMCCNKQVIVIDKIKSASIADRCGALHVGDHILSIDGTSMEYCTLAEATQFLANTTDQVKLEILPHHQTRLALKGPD

MAST1, Q9Y2H9 = biological target: MAST1, Q9Y2H9
Sequence of MAST1, Q9Y2H9 (Q9Y2H9 962-1065): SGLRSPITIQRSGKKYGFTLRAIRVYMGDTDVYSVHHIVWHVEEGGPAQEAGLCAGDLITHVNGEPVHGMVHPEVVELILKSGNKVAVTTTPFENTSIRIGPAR

Inadl_10, Q8NI35 = biological target: Inadl_10, Q8NI35
Sequence of Inadl_10, Q8NI35 (Q8NI35 1673-1763): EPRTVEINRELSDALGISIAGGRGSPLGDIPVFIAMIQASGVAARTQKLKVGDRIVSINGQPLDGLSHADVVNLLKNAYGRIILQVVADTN

PTPN3, P26045 = biological target: PTPN3, P26045
Sequence of PTPN3, P26045 (P26045 505-587): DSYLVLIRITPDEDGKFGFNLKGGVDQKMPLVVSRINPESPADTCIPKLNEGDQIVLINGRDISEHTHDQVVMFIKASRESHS

B1: HPV73-E6, Q82005 (peptide)
chain: SGSRPSATVV
Q: For B1, which pKd (DFNB31_3, Q9P202) is on record?
A: below the threshold

Q: What about the pKd (MAGI2_3, Q86UL8) of the same binder?
A: 3.62

Q: And the pKd (SCRIB_3, Q14160)?
A: below the threshold

Q: And the pKd (NHERF2_2, Q15599)?
A: below the threshold

Q: What about the pKd (FRMPD3, Q5JV73) of the same binder?
A: below the threshold

Q: And the pKd (GRIP1_7, Q9Y3R0)?
A: 3.83

Q: What about the pKd (DLG1_1, Q12959) of the same binder?
A: 3.89

Q: And the pKd (DLG4_3, P78352)?
A: below the threshold

Q: What about the pKd (GRID2IP_2, A4D2P6) of the same binder?
A: below the threshold

Q: What about the pKd (LNX2_3, Q8N448) of the same binder?
A: below the threshold

Q: And the pKd (DFNB31_1, Q9P202)?
A: below the threshold

Q: What about the pKd (Inadl_6, Q8NI35) of the same binder?
A: below the threshold

Q: And the pKd (DLG3_3, Q92796)?
A: below the threshold

Q: And the pKd (DLG1_2, Q12959)?
A: 4.3

Q: What about the pKd (CARD11, Q9BXL7) of the same binder?
A: below the threshold

Q: What about the pKd (PCLO, Q9Y6V0) of the same binder?
A: below the threshold

Q: And the pKd (TJP2_1, Q9UDY2)?
A: 3.77

Q: What about the pKd (DVL3, Q92997) of the same binder?
A: 3.5

Q: And the pKd (CASK, O14936)?
A: below the threshold

Q: And the pKd (TIAM2, Q8IVF5)?
A: below the threshold

Q: And the pKd (MAGI1_2, Q96QZ7)?
A: 4.15

Q: What about the pKd (RHPN1, Q8TCX5) of the same binder?
A: below the threshold

Q: What about the pKd (MAGI2_5, Q86UL8) of the same binder?
A: 3.7

Q: What about the pKd (GRIP1_3, Q9Y3R0) of the same binder?
A: below the threshold

Q: And the pKd (MAST1, Q9Y2H9)?
A: 3.73

Q: And the pKd (Inadl_10, Q8NI35)?
A: below the threshold

Q: And the pKd (PTPN3, P26045)?
A: below the threshold

B2: ACVR2A, P27037 (peptide)
chain: VDFPPKESSL
Q: How did the pKd (DFNB31_3, Q9P202) turn out when B2 was run?
A: below the threshold

Q: And the pKd (MAGI2_3, Q86UL8)?
A: below the threshold

Q: And the pKd (SCRIB_3, Q14160)?
A: 4.88

Q: And the pKd (NHERF2_2, Q15599)?
A: 3.77

Q: And the pKd (FRMPD3, Q5JV73)?
A: below the threshold

Q: What about the pKd (GRIP1_7, Q9Y3R0) of the same binder?
A: 3.47

Q: What about the pKd (DLG1_1, Q12959) of the same binder?
A: 3.71

Q: What about the pKd (DLG4_3, P78352) of the same binder?
A: 3.71

Q: And the pKd (GRID2IP_2, A4D2P6)?
A: 3.48

Q: What about the pKd (LNX2_3, Q8N448) of the same binder?
A: below the threshold

Q: And the pKd (DFNB31_1, Q9P202)?
A: below the threshold

Q: And the pKd (Inadl_6, Q8NI35)?
A: below the threshold

Q: What about the pKd (DLG3_3, Q92796) of the same binder?
A: below the threshold

Q: And the pKd (DLG1_2, Q12959)?
A: 4.24

Q: And the pKd (CARD11, Q9BXL7)?
A: below the threshold

Q: What about the pKd (PCLO, Q9Y6V0) of the same binder?
A: below the threshold

Q: What about the pKd (TJP2_1, Q9UDY2) of the same binder?
A: below the threshold

Q: And the pKd (DVL3, Q92997)?
A: below the threshold

Q: What about the pKd (CASK, O14936) of the same binder?
A: below the threshold

Q: And the pKd (TIAM2, Q8IVF5)?
A: below the threshold

Q: What about the pKd (MAGI1_2, Q96QZ7) of the same binder?
A: below the threshold

Q: And the pKd (RHPN1, Q8TCX5)?
A: 3.97

Q: What about the pKd (MAGI2_5, Q86UL8) of the same binder?
A: below the threshold

Q: What about the pKd (GRIP1_3, Q9Y3R0) of the same binder?
A: below the threshold

Q: What about the pKd (MAST1, Q9Y2H9) of the same binder?
A: 4.77

Q: What about the pKd (Inadl_10, Q8NI35) of the same binder?
A: below the threshold

Q: What about the pKd (PTPN3, P26045) of the same binder?
A: 4.87

B3: SLC2A1, P11166 (peptide)
chain: FHPLGADSQV
Q: B3 was tested. Which pKd (DFNB31_3, Q9P202) did it give?
A: below the threshold

Q: What about the pKd (MAGI2_3, Q86UL8) of the same binder?
A: below the threshold

Q: And the pKd (SCRIB_3, Q14160)?
A: 3.58

Q: What about the pKd (NHERF2_2, Q15599) of the same binder?
A: below the threshold

Q: And the pKd (FRMPD3, Q5JV73)?
A: below the threshold

Q: And the pKd (GRIP1_7, Q9Y3R0)?
A: 3.55

Q: And the pKd (DLG1_1, Q12959)?
A: below the threshold

Q: What about the pKd (DLG4_3, P78352) of the same binder?
A: below the threshold

Q: And the pKd (GRID2IP_2, A4D2P6)?
A: below the threshold

Q: What about the pKd (LNX2_3, Q8N448) of the same binder?
A: below the threshold

Q: And the pKd (DFNB31_1, Q9P202)?
A: below the threshold

Q: What about the pKd (Inadl_6, Q8NI35) of the same binder?
A: below the threshold

Q: What about the pKd (DLG3_3, Q92796) of the same binder?
A: below the threshold

Q: And the pKd (DLG1_2, Q12959)?
A: 3.88

Q: What about the pKd (CARD11, Q9BXL7) of the same binder?
A: below the threshold

Q: What about the pKd (PCLO, Q9Y6V0) of the same binder?
A: below the threshold

Q: And the pKd (TJP2_1, Q9UDY2)?
A: below the threshold

Q: And the pKd (DVL3, Q92997)?
A: below the threshold

Q: What about the pKd (CASK, O14936) of the same binder?
A: below the threshold

Q: What about the pKd (TIAM2, Q8IVF5) of the same binder?
A: below the threshold

Q: And the pKd (MAGI1_2, Q96QZ7)?
A: below the threshold

Q: And the pKd (RHPN1, Q8TCX5)?
A: 4.29

Q: What about the pKd (MAGI2_5, Q86UL8) of the same binder?
A: below the threshold

Q: And the pKd (GRIP1_3, Q9Y3R0)?
A: below the threshold

Q: What about the pKd (MAST1, Q9Y2H9) of the same binder?
A: below the threshold

Q: What about the pKd (Inadl_10, Q8NI35) of the same binder?
A: below the threshold

Q: What about the pKd (PTPN3, P26045) of the same binder?
A: 4.1
